# How the values were obtained:
# Experiment in all cases: cell-based or functional assay
# [1] = target: HIV-1 Env of pseudovirus ZM249M.PL1 (HIV-1)
# [2] = target: HIV-1 Env of pseudovirus Q259.d2.17 (HIV-1)
# [3] = target: HIV-1 envelope of pseudovirus 3103.v3.c10 (HIV-1)
# [4] = target: HIV-1 Env of pseudovirus ZM247v1(Rev-) (HIV-1)
# [5] = target: HIV-1 Env of pseudovirus 211-9 (HIV-1)
# [6] = target: HIV-1 Env of pseudovirus CNE21 (HIV-1)
# [7] = target: HIV-1 envelope of pseudovirus 928-28 (HIV-1)
# [8] = target: HIV-1 Env of pseudovirus 6480.v4.c25 (HIV-1)
# [9] = target: HIV-1 envelope of pseudovirus REJO4541.67 (HIV-1)
# [10] = target: HIV-1 Env of pseudovirus CNE19 (HIV-1)
# [11] = target: HIV-1 Env of pseudovirus QH0692.42 (HIV-1)
# [12] = target: HIV-1 Env of pseudovirus 6952.v1.c20 (HIV-1)
# [13] = target: HIV-1 envelope of pseudovirus Q23.17 (HIV-1)
# [14] = target: HIV-1 Env of pseudovirus BJOX015000.11.5 (HIV-1)
# [15] = target: HIV-1 Env of pseudovirus 3016.v5.c45 (HIV-1)
# [16] = target: HIV-1 Env of pseudovirus 231966.c02 (HIV-1)
# [17] = target: HIV-1 envelope of pseudovirus ZM135M.PL10a (HIV-1)
# [18] = target: HIV-1 Env of pseudovirus C2101.c01 (HIV-1)
# [19] = target: HIV-1 envelope of pseudovirus 231965.c01 (HIV-1)
# [20] = target: HIV-1 envelope of pseudovirus ZM247v1(Rev-) (HIV-1)
# [21] = target: HIV-1 Env of pseudovirus TRJO4551.58 (HIV-1)
# [22] = target: HIV-1 Env of pseudovirus 6811.v7.c18 (HIV-1)
# [23] = target: HIV-1 envelope of pseudovirus 211-9 (HIV-1)
# [24] = target: HIV-1 Env of pseudovirus Du422.1 (HIV-1)
# [25] = target: HIV-1 envelope spike of pseudovirus TRJO4551.58 (HIV-1)
# [26] = target: HIV-1 envelope of pseudovirus CNE20 (HIV-1)
# [27] = target: HIV-1 envelope of pseudovirus TRJO4551.58 (HIV-1)
# [28] = target: HIV-1 envelope of pseudovirus Ce0682_E4 (HIV-1)
# [29] = target: HIV-1 Env of pseudovirus 89-F1_2_25 (HIV-1)
# [30] = target: HIV-1 Env of pseudovirus A07412M1.vrc12 (HIV-1)
# [31] = target: HIV-1 envelope of pseudovirus CNE58 (HIV-1)
# [32] = target: HIV-1 Env of pseudovirus AC10.0.29 (HIV-1)
# [33] = target: HIV-1 envelope of pseudovirus Ce1176_A3 (HIV-1)
# [34] = target: HIV-1 Env of pseudovirus Ce1086_B2 (HIV-1)
# [35] = target: HIV-1 envelope of pseudovirus 89-F1_2_25 (HIV-1)
# [36] = target: HIV-1 Env of pseudovirus X1254_c3 (HIV-1)
# [37] = target: HIV-1 Env of pseudovirus 6244_13_85_4576 (HIV-1)
# [38] = target: HIV-1 Env of pseudovirus 246F C1G (HIV-1)
# [39] = target: HIV-1 Env of pseudovirus ZM214M.PL15 (HIV-1)
# [40] = target: HIV-1 envelope of pseudovirus P1981_C5_3 (HIV-1)
# [41] = target: HIV-1 envelope of pseudovirus CNE5 (HIV-1)
# [42] = target: HIV-1 envelope of pseudovirus 235-47 (HIV-1)
# [43] = target: HIV-1 envelope of pseudovirus R1166.c01 (HIV-1)
# [44] = target: HIV-1 Env of pseudovirus 231965.c01 (HIV-1)
# [45] = target: HIV-1 envelope of pseudovirus X1254_c3 (HIV-1)
# [46] = target: HIV-1 Env of pseudovirus 263-8 (HIV-1)
# [47] = target: HIV-1 envelope of pseudovirus THRO4156.18 (HIV-1)
# [48] = target: HIV-1 envelope of pseudovirus 191084 B7-19 (HIV-1)
# [49] = target: HIV-1 envelope of pseudovirus WEAU_d15_410_787 (HIV-1)
# [50] = target: HIV-1 Env of pseudovirus CAAN5342.A2 (HIV-1)
# [51] = target: HIV-1 envelope of pseudovirus BJOX009000.02.4 (HIV-1)
# Sequence of 10-1074 (antibody) (VH): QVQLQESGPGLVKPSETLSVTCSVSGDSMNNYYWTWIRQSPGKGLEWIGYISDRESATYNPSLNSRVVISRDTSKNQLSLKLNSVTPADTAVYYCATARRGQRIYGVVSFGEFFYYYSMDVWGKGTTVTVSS
# Sequence of 10-1074 (antibody) (V domain): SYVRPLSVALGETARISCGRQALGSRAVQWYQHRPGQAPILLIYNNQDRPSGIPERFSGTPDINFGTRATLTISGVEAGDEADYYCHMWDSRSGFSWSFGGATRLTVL
substance,measurement,setting,value
PGT121 (antibody),IC80 (TZM-bl neutralization),[1],> 50 µg/mL
same,IC80 (TZM-bl neutralization),[2],> 50 µg/mL
same,IC50 (TZM-bl neutralization),[3],0.042 µg/mL
same,IC80 (TZM-bl neutralization),[4],0.126 µg/mL
same,IC80 (TZM-bl neutralization),[5],8.84 µg/mL
same,IC80 (TZM-bl neutralization),[6],0.061 µg/mL
same,IC50 (TZM-bl neutralization),[7],> 50 µg/mL
same,IC80 (TZM-bl neutralization),[8],0.079 µg/mL
same,IC50 (TZM-bl neutralization),[9],3.61 µg/mL
same,IC80 (TZM-bl neutralization),[10],0.189 µg/mL
same,IC80 (TZM-bl neutralization),[11],8.54 µg/mL
same,IC80 (TZM-bl neutralization),[12],0.605 µg/mL
same,IC50 (TZM-bl neutralization),[13],0.01 µg/mL
same,IC80 (TZM-bl neutralization),[14],> 50 µg/mL
same,IC80 (TZM-bl neutralization),[15],> 50 µg/mL
same,IC80 (TZM-bl neutralization),[16],> 50 µg/mL
same,IC50 (TZM-bl neutralization),[17],0.576 µg/mL
same,IC80 (TZM-bl neutralization),[18],> 50 µg/mL
same,IC50 (TZM-bl neutralization),[19],> 50 µg/mL
same,IC50 (TZM-bl neutralization),[20],0.027 µg/mL
same,IC80 (TZM-bl neutralization),[21],35.3 µg/mL
same,IC80 (TZM-bl neutralization),[22],0.017 µg/mL
same,IC50 (TZM-bl neutralization),[23],1.46 µg/mL
same,IC80 (TZM-bl neutralization),[24],0.131 µg/mL
same,IC50 (TZM-bl neutralization assay),[25],3.9 µg/mL
same,IC80 (TZM-bl neutralization assay),[25],26.9 µg/mL
same,IC50 (TZM-bl neutralization),[26],0.002 µg/mL
same,IC50 (TZM-bl neutralization),[27],3.73 µg/mL
same,IC50 (TZM-bl neutralization),[28],> 50 µg/mL
same,IC80 (TZM-bl neutralization),[29],> 50 µg/mL
same,IC80 (TZM-bl neutralization),[30],0.406 µg/mL
same,IC50 (TZM-bl neutralization),[31],> 50 µg/mL
same,IC80 (TZM-bl neutralization),[32],0.169 µg/mL
same,IC50 (TZM-bl neutralization),[33],0.017 µg/mL
same,IC80 (TZM-bl neutralization),[34],0.006 µg/mL
same,IC50 (TZM-bl neutralization),[35],> 50 µg/mL
same,IC80 (TZM-bl neutralization),[36],0.199 µg/mL
same,IC80 (TZM-bl neutralization),[37],1.88 µg/mL
same,IC80 (TZM-bl neutralization),[38],0.287 µg/mL
same,IC80 (TZM-bl neutralization),[39],3.15 µg/mL
same,IC50 (TZM-bl neutralization),[40],0.004 µg/mL
same,IC50 (TZM-bl neutralization),[41],> 50 µg/mL
same,IC50 (TZM-bl neutralization),[42],0.332 µg/mL
same,IC50 (TZM-bl neutralization),[43],> 50 µg/mL
same,IC80 (TZM-bl neutralization),[44],> 50 µg/mL
same,IC50 (TZM-bl neutralization),[45],0.056 µg/mL
same,IC80 (TZM-bl neutralization),[46],24.6 µg/mL
same,IC50 (TZM-bl neutralization),[47],> 50 µg/mL
same,IC50 (TZM-bl neutralization),[48],0.042 µg/mL
same,IC50 (TZM-bl neutralization),[49],0.083 µg/mL
same,IC80 (TZM-bl neutralization),[50],0.051 µg/mL
same,IC50 (TZM-bl neutralization),[51],3.63 µg/mL
10-1074 (antibody),IC80 (TZM-bl neutralization),[1],> 50 µg/mL
same,IC80 (TZM-bl neutralization),[2],> 50 µg/mL
same,IC50 (TZM-bl neutralization),[3],0.037 µg/mL
same,IC80 (TZM-bl neutralization),[4],0.186 µg/mL
same,IC80 (TZM-bl neutralization),[5],0.425 µg/mL
same,IC80 (TZM-bl neutralization),[6],0.181 µg/mL
same,IC50 (TZM-bl neutralization),[7],0.847 µg/mL
same,IC80 (TZM-bl neutralization),[8],0.041 µg/mL
same,IC50 (TZM-bl neutralization),[9],> 50 µg/mL
same,IC80 (TZM-bl neutralization),[10],> 50 µg/mL
same,IC80 (TZM-bl neutralization),[11],0.929 µg/mL
same,IC80 (TZM-bl neutralization),[12],0.138 µg/mL
same,IC50 (TZM-bl neutralization),[13],0.006 µg/mL
same,IC80 (TZM-bl neutralization),[14],> 50 µg/mL
same,IC80 (TZM-bl neutralization),[15],> 50 µg/mL
same,IC80 (TZM-bl neutralization),[16],> 50 µg/mL
same,IC50 (TZM-bl neutralization),[17],0.069 µg/mL
same,IC80 (TZM-bl neutralization),[18],> 50 µg/mL
same,IC50 (TZM-bl neutralization),[19],> 50 µg/mL
same,IC50 (TZM-bl neutralization),[20],0.042 µg/mL
same,IC80 (TZM-bl neutralization),[21],0.634 µg/mL
same,IC80 (TZM-bl neutralization),[22],0.01 µg/mL
same,IC50 (TZM-bl neutralization),[23],0.112 µg/mL
same,IC80 (TZM-bl neutralization),[24],0.166 µg/mL
same,IC50 (TZM-bl neutralization assay),[25],0.17 µg/mL
same,IC80 (TZM-bl neutralization assay),[25],0.693 µg/mL
same,IC50 (TZM-bl neutralization),[26],< 0.001 µg/mL
same,IC50 (TZM-bl neutralization),[27],0.17 µg/mL
same,IC50 (TZM-bl neutralization),[28],> 50 µg/mL
same,IC80 (TZM-bl neutralization),[29],> 50 µg/mL
same,IC80 (TZM-bl neutralization),[30],0.048 µg/mL
same,IC50 (TZM-bl neutralization),[31],0.267 µg/mL
same,IC80 (TZM-bl neutralization),[32],0.11 µg/mL
same,IC50 (TZM-bl neutralization),[33],0.018 µg/mL
same,IC80 (TZM-bl neutralization),[34],> 50 µg/mL
same,IC50 (TZM-bl neutralization),[35],> 50 µg/mL
same,IC80 (TZM-bl neutralization),[36],0.297 µg/mL
same,IC80 (TZM-bl neutralization),[37],0.922 µg/mL
same,IC80 (TZM-bl neutralization),[38],0.111 µg/mL
same,IC80 (TZM-bl neutralization),[39],2.37 µg/mL
same,IC50 (TZM-bl neutralization),[40],0.005 µg/mL
same,IC50 (TZM-bl neutralization),[41],> 50 µg/mL
same,IC50 (TZM-bl neutralization),[42],0.05 µg/mL
same,IC50 (TZM-bl neutralization),[43],> 50 µg/mL
same,IC80 (TZM-bl neutralization),[44],> 50 µg/mL
same,IC50 (TZM-bl neutralization),[45],0.089 µg/mL
same,IC80 (TZM-bl neutralization),[46],6.53 µg/mL
same,IC50 (TZM-bl neutralization),[47],> 50 µg/mL
same,IC50 (TZM-bl neutralization),[48],0.032 µg/mL
same,IC50 (TZM-bl neutralization),[49],0.104 µg/mL
same,IC80 (TZM-bl neutralization),[50],0.036 µg/mL
same,IC50 (TZM-bl neutralization),[51],> 50 µg/mL

# Reference: patent US12338277
